Measurements taken from the supplement of paper PMC9112550, “Optimization of the antimicrobial peptide Bac7 by deep mutational scanning” (BMC Biology, 2022).

The sequences below were run on Escherichia coli TOP10 (assay: shrunken log2 fold change of peptide-encoding DNA abundance (4.5 h post-induction vs induction); higher = less antimicrobial activity (less host growth inhibition)). Settings: time post-induction: 4.5 h; library: site-saturation at positions 5, 18, 19, 20.
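Further: peptides expressed intracellularly from a pBAD plasmid library in pooled LB shake-flask culture, induced with 0.3% L-arabinose, DNA abundance read by NGS, three biological replicates, DESeq2 with apeglm shrinkage.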

Sequence | shrunken log2 fold change
RRIRSRPPRLPRPRPRPMVPPRP | -0.0173
RRIRERPPRLPRPRPRPFNDPRP | -0.0864
RRIRLRPPRLPRPRPRPQTTPRP | -0.152
RRIRWRPPRLPRPRPRPFAWPRP | 0.179
RRIRGRPPRLPRPRPRPIEQPRP | 0.109
RRIRSRPPRLPRPRPRPSYCPRP | -1.07
RRIRWRPPRLPRPRPRPEHVPRP | 0.0199
RRIRLRPPRLPRPRPRPWQFPRP | -0.196
RRIRARPPRLPRPRPRPRGAPRP | 0.961
RRIRWRPPRLPRPRPRPWHLPRP | -0.00636
RRIRGRPPRLPRPRPRPCVPPRP | 0.307
RRIRQRPPRLPRPRPRPHWGPRP | 0.0433
RRIRARPPRLPRPRPRPAREPRP | 0.835
RRIRYRPPRLPRPRPRPVDNPRP | -0.0156
RRIRARPPRLPRPRPRPDYLPRP | -0.805
RRIRVRPPRLPRPRPRPAMWPRP | -0.0044
RRIRPRPPRLPRPRPRPEGYPRP | 0.128
RRIRHRPPRLPRPRPRPSDHPRP | -0.548
RRIRTRPPRLPRPRPRPPKIPRP | -0.112
RRIRRRPPRLPRPRPRPLMGPRP | 0.018
RRIRPRPPRLPRPRPRPRQAPRP | 0.0176
RRIRYRPPRLPRPRPRPSYYPRP | -1.66

Sequence | shrunken log2 fold change
RRIRNRPPRLPRPRPRPITAPRP | -0.132
RRIRHRPPRLPRPRPRPDPSPRP | -0.00848
RRIRQRPPRLPRPRPRPYTPPRP | -0.856
RRIRGRPPRLPRPRPRPCAQPRP | 1.07
RRIRNRPPRLPRPRPRPPEIPRP | -0.169
RRIRTRPPRLPRPRPRPDVEPRP | 0.053
RRIRCRPPRLPRPRPRPTETPRP | -0.0479
RRIRCRPPRLPRPRPRPFRHPRP | -0.143
RRIRGRPPRLPRPRPRPPKAPRP | 0.63
RRIRARPPRLPRPRPRPVMWPRP | 0.555
RRIRRRPPRLPRPRPRPHEIPRP | -0.0745
RRIRNRPPRLPRPRPRPAHFPRP | 0.292
RRIRFRPPRLPRPRPRPTHDPRP | 0.241
RRIRHRPPRLPRPRPRPVWWPRP | 0.174
RRIRSRPPRLPRPRPRPLWVPRP | 0.0823
RRIRVRPPRLPRPRPRPWRNPRP | 0.065
RRIRSRPPRLPRPRPRPLPCPRP | -0.00277
RRIRERPPRLPRPRPRPMATPRP | 0.0537
RRIRARPPRLPRPRPRPSWKPRP | 0.237
RRIRNRPPRLPRPRPRPDMAPRP | -0.0639
RRIRTRPPRLPRPRPRPVLIPRP | 0.233
RRIRPRPPRLPRPRPRPARWPRP | 0.44

Sequence | shrunken log2 fold change
RRIRMRPPRLPRPRPRPVTHPRP | 0.0493
RRIRYRPPRLPRPRPRPKFGPRP | -0.000463
RRIRCRPPRLPRPRPRPCILPRP | -1.1
RRIRMRPPRLPRPRPRPERFPRP | 0.0214
RRIRTRPPRLPRPRPRPCIQPRP | 0.0196
RRIRLRPPRLPRPRPRPEIDPRP | -0.0103
RRIRCRPPRLPRPRPRPKRAPRP | 0.778
RRIRHRPPRLPRPRPRPDGPPRP | -0.0182
RRIRPRPPRLPRPRPRPEFMPRP | 0.0793
RRIRERPPRLPRPRPRPPMKPRP | -0.418
RRIRQRPPRLPRPRPRPNACPRP | -0.000684
RRIRHRPPRLPRPRPRPTRAPRP | 0.348
RRIRYRPPRLPRPRPRPDFCPRP | -0.228
RRIRLRPPRLPRPRPRPEMDPRP | -0.059
RRIRQRPPRLPRPRPRPAWRPRP | 0.497
RRIRVRPPRLPRPRPRPKDWPRP | 0.0589
RRIRKRPPRLPRPRPRPAEHPRP | 0.12
RRIRRRPPRLPRPRPRPLMMPRP | 0.8
RRIRMRPPRLPRPRPRPFHKPRP | 0.0887
RRIRGRPPRLPRPRPRPRTFPRP | 1.1
RRIRNRPPRLPRPRPRPANKPRP | 0.0716
RRIRIRPPRLPRPRPRPRKRPRP | 0.178

Sequence | shrunken log2 fold change
RRIRDRPPRLPRPRPRPADRPRP | 0.0125
RRIRVRPPRLPRPRPRPNPLPRP | -0.167
RRIRWRPPRLPRPRPRPHSVPRP | 0.0489
RRIRQRPPRLPRPRPRPDYEPRP | 0.0301
RRIRNRPPRLPRPRPRPSAVPRP | -0.193
RRIRVRPPRLPRPRPRPHRTPRP | -0.16
RRIRPRPPRLPRPRPRPWKDPRP | -0.0368
RRIRQRPPRLPRPRPRPWFEPRP | -0.00226
RRIRPRPPRLPRPRPRPITGPRP | -0.189
RRIRCRPPRLPRPRPRPVENPRP | 0.112
RRIRVRPPRLPRPRPRPHYIPRP | -0.589
RRIRVRPPRLPRPRPRPNPFPRP | -0.104
RRIRCRPPRLPRPRPRPPQSPRP | 0.839
RRIRCRPPRLPRPRPRPSWFPRP | -0.147
RRIRWRPPRLPRPRPRPAVDPRP | 0.174
RRIRCRPPRLPRPRPRPNNGPRP | -0.451
RRIRYRPPRLPRPRPRPDERPRP | 0.0108
RRIRVRPPRLPRPRPRPEVHPRP | -0.0892
RRIRIRPPRLPRPRPRPVGCPRP | 0.166
RRIRYRPPRLPRPRPRPAMWPRP | -0.0439
RRIRSRPPRLPRPRPRPGSLPRP | -0.0216
RRIRWRPPRLPRPRPRPSTVPRP | -0.362

Sequence | shrunken log2 fold change
RRIRWRPPRLPRPRPRPKFSPRP | 0.346
RRIRVRPPRLPRPRPRPFLFPRP | -0.205
RRIRIRPPRLPRPRPRPPESPRP | 0.185
RRIRRRPPRLPRPRPRPEEVPRP | 0.0988
RRIRCRPPRLPRPRPRPSIYPRP | -0.713
RRIRPRPPRLPRPRPRPICDPRP | -0.0726
RRIRDRPPRLPRPRPRPAFEPRP | 0.906
RRIRLRPPRLPRPRPRPMATPRP | -0.187
RRIRERPPRLPRPRPRPTFWPRP | -0.0352
RRIRCRPPRLPRPRPRPLCNPRP | -0.244
RRIRVRPPRLPRPRPRPPVDPRP | 0.0819
RRIRARPPRLPRPRPRPPLSPRP | 0.549
RRIRVRPPRLPRPRPRPEILPRP | -0.0486
RRIRLRPPRLPRPRPRPHPIPRP | 0.0174
RRIRERPPRLPRPRPRPKFDPRP | 0.154
RRIRLRPPRLPRPRPRPAQAPRP | -0.0635
RRIRHRPPRLPRPRPRPRQKPRP | -0.01
RRIRKRPPRLPRPRPRPCQAPRP | 0.157
RRIRRRPPRLPRPRPRPTTSPRP | 0.591
RRIRPRPPRLPRPRPRPKQPPRP | 0.0475
RRIRKRPPRLPRPRPRPFGMPRP | -0.00211
